Results as given in patent publication US20220119513A1 (ZOETIS SERVICES, published 2022).
Changes are numbered by the printed parent chain. Names and notes keep the numbering of the source.

T1: TGFβ2 (R&D Systems)
T1 construct: also called TGFB2
T1 sequence (P61812 303-414, species assumed, looked up): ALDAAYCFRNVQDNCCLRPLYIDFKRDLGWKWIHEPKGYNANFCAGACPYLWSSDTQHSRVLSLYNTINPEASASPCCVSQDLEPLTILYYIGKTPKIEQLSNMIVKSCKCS

T2: TGFβ3 (R&D Systems) (Homo sapiens (Human), UniProt P10600 301-412, Active TGFβ3 is a disulfide-linked homodimer of this chain; one copy is given.)
T2 construct: also called TGFB3
T2 sequence: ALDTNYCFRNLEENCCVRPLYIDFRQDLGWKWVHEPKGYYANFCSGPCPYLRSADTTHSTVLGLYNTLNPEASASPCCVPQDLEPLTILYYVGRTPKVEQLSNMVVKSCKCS

B1: Can-SL501-VH3 Y111V / Can-SL501-VL2 (antibody, V domains shown)
VH: EVQLVESGGDLVKPGGSLRLSCVASGFTFSSYGMHWVRQAPGKELEWVAVISYDGSIKYYADAVKGRFTISRDNAKNTLYLQMNSLRAEDTAVYYCARTGEYSGYDTDPQVSWGQGTTVTVSS
VL: EIVMTQSPGSLAGSAGESVSINCRASQGIGDDLGWYQQKPGERPKLLIYGTSTLQSGVPARFSSSGSGTDFTLTINNLQAEDVGDYYCLQDSNYPLTFGAGTK
B2: Can-SL501-VH3 S112N / Can-SL501-VL2 (antibody, V domains shown)
VH: B1 VH with V111Y, S112N
VL: B1 VL
B3: Can-SL501-VH3 S112T / Can-SL501-VL2 (antibody, V domains shown)
VH: B1 VH with V111Y, S112T
VL: B1 VL
B4: Can-SL501-VH3 S112A / Can-SL501-VL2 (antibody, V domains shown)
VH: B1 VH with V111Y, S112A
VL: B1 VL
B5: Can-SL501-VH3 S112G / Can-SL501-VL2 (antibody, V domains shown)
VH: B1 VH with V111Y, S112G
VL: B1 VL
B6: Can-SL501-VH3 S112P / Can-SL501-VL2 (antibody, V domains shown)
VH: B1 VH with V111Y, S112P
VL: B1 VL
B7: Can-SL501-VH3 S112L / Can-SL501-VL2 (antibody, V domains shown)
VH: B1 VH with V111Y, S112L
VL: B1 VL
B8: affinity matured HcLb 269 (antibody, V domains shown)
VH: EVQLVQSGAEVKKPGASVKVSCKTSGYTFMTYWMNWVRQAPGAGLDWMGQIFPAWGMTNYNEMFEGRVTLTADTSTSTAYMELSSLRAGDIAVYYCARGYGNYALDAMDYWGQGTLVTVSS
VL: DIVMTQTPPSLSVSPRETASISCRASESVDSYGNSFMHWYLQKPGQSPQLLIYLASNLESGVSDRFSGSGSGTDFTLRISRVEANDTGVYYCQQNDEDPLSFGQGTK
notes: full IgG; also called canHcLb/55SW/100DY/57SM/30IM + canHcLb/237ND/242TS
B9: affinity matured HcLb 189 (antibody, V domains shown)
VH: B8 VH with M30I, M57S
VL: B8 VL
notes: full IgG; also called canHcLb/S55W/D100Y + canHcLb/237ND/242TS
B10: affinity matured HcLb 205 (antibody, V domains shown)
VH: B8 VH with T28I, M30I, M57S
VL: B8 VL
notes: full IgG; also called canHcLb/S55W/D100Y/T28/I + canHcLb/237ND/242TS
B11: affinity matured HcLb 217 (antibody, V domains shown)
VH: B8 VH with M57S
VL: B8 VL
notes: full IgG; also called canHcLb/S55W/D100Y/I30/M + canHcLb/237ND/242TS
B12: affinity matured HcLb 233 (antibody, V domains shown)
VH: B8 VH with M30I
VL: B8 VL
notes: full IgG; also called canHcLb/55SW/100DY/57/SM + canHcLb/237ND/242TS
B13: affinity matured HcLb 239 (antibody, V domains shown)
VH: B8 VH with M30I, T31K, M57S
VL: B8 VL
notes: full IgG; also called canHcLb/55SW/100DY/31/TK + canHcLb/237ND/242TS
B14: affinity matured HcLb 257 (antibody, V domains shown)
VH: B8 VH with T31K, M57S
VL: B8 VL
notes: full IgG; also called canHcLb/55SW/100DY/30IM/31TK + canHcLb/237ND/242TS
B15: affinity matured HcLb 264 (antibody, V domains shown)
VH: B8 VH with T28I, T31K, M57S
VL: B8 VL
notes: full IgG; also called canHcLb/55SW/100DY/30IM/31TK/28TI + canHcLb/237ND/242TS
B16: affinity matured HcLb 265 (antibody, V domains shown)
VH: B8 VH with T31K
VL: B8 VL
notes: full IgG; also called canHcLb/55SW/100DY/30IM/31TK/57SM + canHcLb/237ND/242TS
B17: affinity matured HcLb 266 (antibody, V domains shown)
VH: B8 VH with T28I, T31K
VL: B8 VL
notes: full IgG; also called canHcLb/55SW/100DY/30IM/31TK/28TI/57SM + canHcLb/237ND/242TS
B18: affinity matured HcLb 271 (antibody, V domains shown)
VH: B8 VH with T31F
VL: B8 VL
notes: full IgG; also called canHcLb/55SW/100DY/57SM/30IM/31TF + canHcLb/237ND/242TS
B19: affinity matured HcLb 272 (antibody, V domains shown)
VH: B8 VH with T28K, T31F
VL: B8 VL
notes: full IgG; also called canHcLb/55SW/100DY/57SM/30IM/31TF/28TK + canHcLb/237ND/242TS
B20: affinity matured HcLb 275 (antibody, V domains shown)
VH: B8 VH with T28K, M30W, T31F
VL: B8 VL
notes: full IgG; also called canHcLb/55SW/100DY/57SM/30IW/31TF/28TK + canHcLb/237ND/242TS
B21: affinity matured HcLb 237 (antibody, V domains shown)
VH: B8 VH with M30I, M57V
VL: B8 VL
notes: full IgG; also called canHcLb/55SW/100DY/57/SV + canHcLb/237ND/242TS
B22: affinity matured HcLb 188 (antibody, V domains shown)
VH: B8 VH with M30I, M57S
VL: DIVMTQTPPSLSVSPRETASISCRASESVDSYGNSFMHWYLQKPGQSPQLLIYLASNLESGVSDRFSGSGSGTDFTLRISRVEANDTGVYYCQQNNEDPLTFGQ
notes: full IgG; constant regions not restated
B23: affinity matured HcLb 258 (antibody, V domains shown)
VH: B8 VH with T31K, M57S
VL: B22 VL
notes: as for B22
B24: affinity matured HcLb 267 (antibody, V domains shown)
VH: B8 VH with T28I, T31K, M57S
VL: B22 VL
notes: as for B22
B25: affinity matured HcLb 268 (antibody, V domains shown)
VH: B8 VH with T28I, T31K
VL: B22 VL
notes: as for B22
B26: affinity matured HcLb 270 (antibody, V domains shown)
VH: B8 VH
VL: B8 VL
notes: full IgG; also called canHcLb/55SW/100DY/57SV/30IM + canHcLb/237ND/242TS
B27: affinity matured HcLb 27 (antibody, V domains shown)
VH: B8 VH with M30I, W55S, M57S
VL: B22 VL
B28: affinity matured HcLb 73 (antibody, V domains shown)
VH: B8 VH with M30I, W55S, M57S
VL: B8 VL with S101T
B29: affinity matured HcLb 91 (antibody, V domains shown)
VH: B8 VH with M30I, M57S, Y100D
VL: B22 VL
B30: affinity matured HcLb 187 (antibody, V domains shown)
VH: B8 VH with M30I, A54G, W55S, M57S
VL: B22 VL
B31: affinity matured HcLb 190 (antibody, V domains shown)
VH: B8 VH with M30I, A54G, W55S, M57S
VL: B8 VL

Each binder was assayed against T3, TGFβ1 (R&D Systems) (assay: single point SPR).
T3 construct: also called TGFB1
T3 sequence (P01137 279-390): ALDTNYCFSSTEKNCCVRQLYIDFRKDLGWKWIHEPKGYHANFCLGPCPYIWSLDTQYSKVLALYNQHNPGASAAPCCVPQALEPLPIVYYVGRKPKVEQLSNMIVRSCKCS

Binder	Kd
B1	0.93 nM
B2	3.4 nM
B3	3.51 nM
B4	0.877 nM
B5	0.762 nM
B6	2.8 nM
B7	6.97 nM

These binders were tested against T3, TGFβ1 (R&D Systems) (assay: SPR full titration).

Binder	Kd
B8	4.4 nM
B9	2.65 nM
B10	1.78 nM
B11	2.58 nM
B12	2.03 nM
B13	3.53 nM
B14	2.03 nM
B15	2.69 nM
B16	3.24 nM
B17	2.4 nM
B18	2.3 nM
B19	2.39 nM
B20	2.39 nM
B21	2.27 nM
B22	3.96 nM
B23	3.81 nM
B24	5.1 nM
B25	5.34 nM

The binders below were run against T1, TGFβ2 (R&D Systems) (assay: SPR full titration).

Binder	Kd
B8	3.05 nM
B9	0.922 nM
B10	2.09 nM
B11	3.91 nM
B12	3.98 nM
B13	6.44 nM
B14	4.72 nM
B15	3.89 nM
B16	2.82 nM
B17	2.9 nM
B18	1.28 nM
B19	2.02 nM
B20	2.91 nM
B21	4.07 nM
B22	0.937 nM
B23	4.4 nM
B24	3.77 nM
B25	3.96 nM

The binders below were run against T2, TGFβ3 (R&D Systems) (assay: SPR full titration).

Binder	Kd
B8	0.99 nM
B9	0.226 nM
B10	0.005 nM
B11	0.676 nM
B12	0.457 nM
B13	0.431 nM
B14	0.649 nM
B15	3.75 nM
B16	0.7 nM
B17	0.453 nM
B18	0.957 nM
B19	0.895 nM
B20	0.824 nM
B21	0.476 nM
B22	0.417 nM
B23	8.6 nM
B24	1.01 nM
B25	1.03 nM
B26	1.19 nM

The binders below were run against T3, TGFβ1 (R&D Systems) (assay: cell-based or functional assay).

Binder	pSmad-3, IC50
B9	2.21 nM
B11	0.78 nM
B12	0.71 nM
B13	1.43 nM
B14	0.7 nM
B21	0.76 nM
B22	2.73 nM
B23	0.61 nM
B27	1.43 nM
B28	1.17 nM
B29	2.16 nM
B30	0.82 nM
B31	3.26 nM

Each binder was assayed against T1, TGFβ2 (R&D Systems) (assay: cell-based or functional assay).

Binder	pSmad-3, IC50
B9	3.29 nM
B11	1.71 nM
B12	1.68 nM
B13	5.42 nM
B14	2.02 nM
B21	1.6 nM
B22	2.29 nM
B23	0.79 nM
B27	8.24 nM
B28	8.42 nM
B29	4.43 nM
B30	2.08 nM
B31	2.77 nM

These binders were tested against T2, TGFβ3 (R&D Systems) (assay: cell-based or functional assay).

Binder	pSmad-3, IC50
B9	2.13 nM
B11	1.44 nM
B12	1.33 nM
B13	1.54 nM
B14	1.6 nM
B21	1.05 nM
B22	1.46 nM
B23	1.09 nM
B27	1.7 nM
B28	1.24 nM
B29	2.31 nM
B30	8.61 nM
B31	7.79 nM
